± gives the standard deviation of the averaged measurements.
Tested on: ATP
Test: switch fluorescence ratio, 500 uM ATP over buffer (Cy3 cluster intensity, sum of 5 cycles each) (fold (ratio)); higher = stronger signal-on switching upon ATP binding; sequences stand for … in TCGTCGGCAGCGTCAGATGTGTATAAGAGACAGTTTTTTTTTTTTTTTTTTTTTTTTT…TC
Details: aptamer strand: ATP DNA aptamer (quencher-CACCTGGGGGAGTATTGCGGAGGAAGG + anchor), 100 nM annealed; ATP concentration: 500 uM
In short: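 Between each of five buffer/ATP cycles, the flow-cell was stripped with NaOH and re-annealed. Each cycle imaged Cy3-labelled switching-strand clusters, annealed to 100 nM quencher-labelled ATP aptamer on a modified Illumina MiSeq flow-cell, first in selection buffer and then after 15 min with 500 uM ATP at 22 °C. The fluorescence ratio is summed target-cycle over summed buffer-cycle Cy3 intensity per cluster, averaged per switch-domain sequence, with clusters outside 100-1000 RFU excluded.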
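Note: ATP exposure 15 min at 22 °C before imaging.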

ACTTTCGGGA
switch fluorescence ratio: 0.995 ± 0.011

GCGGGGGATC
switch fluorescence ratio: 1 ± 0.03

TATTGTCTTT
switch fluorescence ratio: 1.02 ± 0.025

TGTTAAACGC
switch fluorescence ratio: 0.945 ± 0.03

GCCTTTTGCA
switch fluorescence ratio: 1.01 ± 0.03

TTAATTAACC
switch fluorescence ratio: 1.13 ± 0.098

TTACTGGGGA
switch fluorescence ratio: 1.04 ± 0.011

AGGGGAAAGC
switch fluorescence ratio: 1.01 ± 0.027

GCCCTACAAC
switch fluorescence ratio: 0.998 ± 0.012

ATTTACAGAT
switch fluorescence ratio: 1.04 ± 0.03

GATTGGGCTT
switch fluorescence ratio: 0.998 ± 0.0097

AGGATCGTCA
switch fluorescence ratio: 0.9893 ± 0.0038

TGTTTTGTTG
switch fluorescence ratio: 0.99 ± 0.016

TTTCGTATTT
switch fluorescence ratio: 0.992 ± 0.046

TTTGCGAGAG
switch fluorescence ratio: 1.01 ± 0.045

ACGGGACATT
switch fluorescence ratio: 1.19 ± 0.033

GGTTTGAGAA
switch fluorescence ratio: 1.018 ± 0.0031

GCACCATAGC
switch fluorescence ratio: 1.06 ± 0.011

TGATAAGTG
switch fluorescence ratio: 0.9877 ± 0.0016

GTAGGGGATA
switch fluorescence ratio: 1.02 ± 0.026

ACTGGTATAG
switch fluorescence ratio: 1.041 ± 0.0019

TCGGGGAGAA
switch fluorescence ratio: 0.992 ± 0.073

ACCTAAAATA
switch fluorescence ratio: 1.07 ± 0.085

GGGGGAACAG
switch fluorescence ratio: 0.991 ± 0.011

TACTAATGTT
switch fluorescence ratio: 1.03 ± 0.044

CGTTTGGTGG
switch fluorescence ratio: 1.01 ± 0.032

GATAATATGG
switch fluorescence ratio: 0.9814 ± 0.0094

TGCAATGTAG
switch fluorescence ratio: 1.082 ± 0.0029

AGGCTGCAGT
switch fluorescence ratio: 1.013 ± 0.007

TAGGGTAGTT
switch fluorescence ratio: 1.02 ± 0.071

ATACAGCACC
switch fluorescence ratio: 1.45 ± 0.048

TTTTTAATTT
switch fluorescence ratio: 0.993 ± 0.023

TGTGGCCGGG
switch fluorescence ratio: 0.998 ± 0.024

GACTGTTACA
switch fluorescence ratio: 1.2 ± 0.017

GGCCCTGAGC
switch fluorescence ratio: 0.9991 ± 0.0025

CCGGGGTCCG
switch fluorescence ratio: 1.13 ± 0.041

TCTTGGGGAC
switch fluorescence ratio: 1.14 ± 0.2

ATCGGGCTGT
switch fluorescence ratio: 1.03 ± 0.013

CTGGAGGGA
switch fluorescence ratio: 1 ± 0.07

AGTTGCTTGT
switch fluorescence ratio: 1.01 ± 0.036

TTGGTTATAG
switch fluorescence ratio: 1.01 ± 0.011

GTATTCGGTG
switch fluorescence ratio: 0.982 ± 0.045

AGAGGGGTTG
switch fluorescence ratio: 0.972 ± 0.016

GTGGAAGGCA
switch fluorescence ratio: 0.9925 ± 0.0025

TCTCAAATTT
switch fluorescence ratio: 0.975 ± 0.029

GTGTACGGGT
switch fluorescence ratio: 0.991 ± 0.012

TCCGTCCCCG
switch fluorescence ratio: 1.35 ± 0.058

TGGTGTATGC
switch fluorescence ratio: 1.03 ± 0.059

TATCGGTATT
switch fluorescence ratio: 1 ± 0.039

TGGGGTGTGG
switch fluorescence ratio: 1.23 ± 0.36

GAAAACGGGG
switch fluorescence ratio: 1.01 ± 0.02

AACAGGGTCT
switch fluorescence ratio: 0.991 ± 0.038

ATACGGGAGC
switch fluorescence ratio: 1.01 ± 0.048

GGGAAGGTTA
switch fluorescence ratio: 0.993 ± 0.017

GTAGCATATT
switch fluorescence ratio: 1.49 ± 0.011

ACTTTGATGT
switch fluorescence ratio: 1.01 ± 0.012

TATCGGTCCG
switch fluorescence ratio: 1.01 ± 0.024

TCAGGACGGC
switch fluorescence ratio: 0.99 ± 0.044

TTGCCTAACT
switch fluorescence ratio: 1.04 ± 0.028

GCATGGGTAG
switch fluorescence ratio: 0.982 ± 0.018

AGGGTTTGGG
switch fluorescence ratio: 1.01 ± 0.038

ATCTAGTTTG
switch fluorescence ratio: 1.01 ± 0.045

ATTCTTTCTT
switch fluorescence ratio: 1.002 ± 0.0018

CCCGCGGTTA
switch fluorescence ratio: 1.23 ± 0.032

TGTTAAAGTT
switch fluorescence ratio: 0.9908 ± 0.0045

CTAACCAGCC
switch fluorescence ratio: 1.6 ± 0.13

AGCCCCTTAG
switch fluorescence ratio: 1.002 ± 0.0065

TAGGTTTTGT
switch fluorescence ratio: 1 ± 0.044

GGGGGTGGTT
switch fluorescence ratio: 0.99 ± 0.037

TGGATGAATT
switch fluorescence ratio: 0.9981 ± 0.0045

CCTGGGTTAG
switch fluorescence ratio: 0.998 ± 0.017

ATCATATTAG
switch fluorescence ratio: 1.01 ± 0.019

AGGTCCGACG
switch fluorescence ratio: 0.967 ± 0.041

TCCGTCGCAA
switch fluorescence ratio: 2.23 ± 0.41

GCGTATCGCG
switch fluorescence ratio: 0.985 ± 0.035

GCAACGGGTC
switch fluorescence ratio: 1.03 ± 0.025

GGGGATAGT
switch fluorescence ratio: 1 ± 0.015

GGGTATGGCC
switch fluorescence ratio: 1.01 ± 0.025

GTTTCAAGAT
switch fluorescence ratio: 0.994 ± 0.044

AAAAATTCTG
switch fluorescence ratio: 1.02 ± 0.014

AGGAGGTGTC
switch fluorescence ratio: 1.06 ± 0.11

TTAGGAGATG
switch fluorescence ratio: 0.9802 ± 0.0059

TTTTCCGCTT
switch fluorescence ratio: 1.55 ± 0.69

TTGTTGCGGG
switch fluorescence ratio: 0.977 ± 0.019

TTTTCCACGA
switch fluorescence ratio: 1.3 ± 0.35

TTTCCCTGGT
switch fluorescence ratio: 1.12 ± 0.11

AAGAGGAGAG
switch fluorescence ratio: 1.036 ± 0.0073

TCCAAGTCCC
switch fluorescence ratio: 1.018 ± 0.0088

GCATCGTGCG
switch fluorescence ratio: 1.01 ± 0.052

CATGAGGTTC
switch fluorescence ratio: 0.974 ± 0.03

TTTGGGAGCA
switch fluorescence ratio: 0.9882 ± 0.0022

CAGGGGAAAT
switch fluorescence ratio: 0.993 ± 0.029

ACCAGTCTCG
switch fluorescence ratio: 1.07 ± 0.08

AGGGTGGTGT
switch fluorescence ratio: 0.976 ± 0.039

GGGAGGTATA
switch fluorescence ratio: 0.969 ± 0.012

TGGGGTACAT
switch fluorescence ratio: 0.991 ± 0.016

GACTGGTAAT
switch fluorescence ratio: 1.047 ± 0.0072

CTATAAAAGT
switch fluorescence ratio: 0.9983 ± 0.0076

AGTCTGGACT
switch fluorescence ratio: 0.988 ± 0.025

TTAACATGTG
switch fluorescence ratio: 0.9593 ± 0.0034

GCATGATAAT
switch fluorescence ratio: 1.004 ± 0.0013

ATTAGGGAAT
switch fluorescence ratio: 0.976 ± 0.04

ACATACGCAA
switch fluorescence ratio: 4.63 ± 0.56

GCCGGGATTG
switch fluorescence ratio: 0.976 ± 0.029

TTCTCGCTGG
switch fluorescence ratio: 1 ± 0.041

CTTGAGGGGG
switch fluorescence ratio: 1.04 ± 0.092

GGTGGGGATT
switch fluorescence ratio: 1.07 ± 0.17

GGGTTGCTTG
switch fluorescence ratio: 0.981 ± 0.049

GCTTGGATTG
switch fluorescence ratio: 1.01 ± 0.054

CATGATGTTC
switch fluorescence ratio: 1.02 ± 0.021

ATGCATTGGA
switch fluorescence ratio: 1.01 ± 0.029

TGATAGTGAT
switch fluorescence ratio: 0.988 ± 0.024

CTAAGCGGGA
switch fluorescence ratio: 1.05 ± 0.016

GACGGGATGG
switch fluorescence ratio: 0.993 ± 0.056

TGGTTTCA
switch fluorescence ratio: 1.02 ± 0.041

CAAGATCATT
switch fluorescence ratio: 1.008 ± 0.0036

TAGGATTTTG
switch fluorescence ratio: 0.985 ± 0.033

AAATTGGGAA
switch fluorescence ratio: 1.01 ± 0.035

AATAATGCGT
switch fluorescence ratio: 0.994 ± 0.034

GTAGGAACCT
switch fluorescence ratio: 1.8 ± 0.12

GGGAGATTGT
switch fluorescence ratio: 0.999 ± 0.026

AACGTGCCTG
switch fluorescence ratio: 0.979 ± 0.077

GGTATGGAGC
switch fluorescence ratio: 0.971 ± 0.039

CATACTCAGA
switch fluorescence ratio: 1 ± 0.045

AGCGGGTTAA
switch fluorescence ratio: 1.017 ± 0.0096

TGCAGGGGTC
switch fluorescence ratio: 1.02 ± 0.025

ATCCGTGGTT
switch fluorescence ratio: 1.01 ± 0.047

CTTGTTATTG
switch fluorescence ratio: 0.9602 ± 0.0071

CAATTATTAG
switch fluorescence ratio: 0.988 ± 0.017

TTTTGGTAGG
switch fluorescence ratio: 1.02 ± 0.02

GAATGTATTG
switch fluorescence ratio: 1.013 ± 0.006

TAGAAATACT
switch fluorescence ratio: 1.54 ± 0.2

TTTAAGGGAC
switch fluorescence ratio: 1.05 ± 0.021

CATGTTCGGG
switch fluorescence ratio: 0.971 ± 0.012

TTTGATGGGA
switch fluorescence ratio: 1.025 ± 0.0068

TGTGGTGGAG
switch fluorescence ratio: 0.9617 ± 0.0071

TAGTGATCTT
switch fluorescence ratio: 0.997 ± 0.0066

CTAAGGGGAT
switch fluorescence ratio: 1.09 ± 0.15

AGTGTGGCCA
switch fluorescence ratio: 1.02 ± 0.016

TGTAACTTCG
switch fluorescence ratio: 1.001 ± 0.0082

GAAAGGGTTG
switch fluorescence ratio: 0.968 ± 0.035

GGGCCCGCTG
switch fluorescence ratio: 0.987 ± 0.049

TTACCACAGC
switch fluorescence ratio: 1.05 ± 0.041

GATAGTGTTG
switch fluorescence ratio: 0.992 ± 0.041

GAGCTAAGTT
switch fluorescence ratio: 0.992 ± 0.012

GTCACCAACA
switch fluorescence ratio: 1.27 ± 0.28

GCTCGGGGGC
switch fluorescence ratio: 1.008 ± 0.0081

CGGAAGGCAT
switch fluorescence ratio: 1.04 ± 0.025

AGGGGGATCG
switch fluorescence ratio: 0.9794 ± 0.0018

CGTTTTCCGA
switch fluorescence ratio: 1.01 ± 0.032

CTATAGGAAA
switch fluorescence ratio: 1.03 ± 0.026

TAGACTTGTT
switch fluorescence ratio: 0.996 ± 0.02

AATTGAGGGC
switch fluorescence ratio: 1.02 ± 0.035

CTTTGGCTGA
switch fluorescence ratio: 0.998 ± 0.025

GTGTGCTAGT
switch fluorescence ratio: 0.975 ± 0.02

GGAGTGGGTC
switch fluorescence ratio: 1.02 ± 0.041

TTTGTTGAC
switch fluorescence ratio: 0.998 ± 0.024

CGTTTTTGGC
switch fluorescence ratio: 0.992 ± 0.074

AAACCTGGGT
switch fluorescence ratio: 1.03 ± 0.025

GGCATTGTCT
switch fluorescence ratio: 1.03 ± 0.023

CGGCTCCTCA
switch fluorescence ratio: 1.08 ± 0.045

TCGGTTCCCG
switch fluorescence ratio: 0.981 ± 0.018

GGGAAAAAGT
switch fluorescence ratio: 0.985 ± 0.027

ATGGGGGGTT
switch fluorescence ratio: 1.01 ± 0.043

GTTGTGGGGA
switch fluorescence ratio: 1.02 ± 0.023

TGACGATAGG
switch fluorescence ratio: 0.995 ± 0.013

GAAAAAGGGG
switch fluorescence ratio: 1.01 ± 0.019

TTTTTAAACA
switch fluorescence ratio: 1.01 ± 0.068

ATGTTATACT
switch fluorescence ratio: 1.02 ± 0.028

TAAAGTACGT
switch fluorescence ratio: 1.11 ± 0.021

ATTCTGAGGC
switch fluorescence ratio: 1.03 ± 0.045

AGGACCAGTT
switch fluorescence ratio: 1.03 ± 0.055

TCCTTGATTG
switch fluorescence ratio: 0.974 ± 0.057

GCGCGGGGGG
switch fluorescence ratio: 1.02 ± 0.03

CTTGATTTGA
switch fluorescence ratio: 1.001 ± 0.0089

ATGGCCGGGT
switch fluorescence ratio: 1.01 ± 0.013

GTCGGAGAGC
switch fluorescence ratio: 1.04 ± 0.039

AGATGAGTGT
switch fluorescence ratio: 1 ± 0.02

TTGGTGCCTT
switch fluorescence ratio: 1.07 ± 0.033

ACTTAATTGT
switch fluorescence ratio: 1.07 ± 0.084

AATTACGTTT
switch fluorescence ratio: 1.06 ± 0.062

CAAGAAGAGT
switch fluorescence ratio: 1.01 ± 0.04

CGGTCTACCT
switch fluorescence ratio: 1.02 ± 0.014

AATAAATGAT
switch fluorescence ratio: 1.01 ± 0.022

AGTGGTGGCT
switch fluorescence ratio: 1.04 ± 0.018

TTCCTTGCGG
switch fluorescence ratio: 1.08 ± 0.057

GTTTTCAGTA
switch fluorescence ratio: 0.982 ± 0.0022

TCCGCGGAG
switch fluorescence ratio: 1.15 ± 0.13

TGGCCAAATT
switch fluorescence ratio: 1.03 ± 0.019

GCTGCAGGGG
switch fluorescence ratio: 1.144 ± 0.0063

ACTTTATCTT
switch fluorescence ratio: 1.063 ± 0.01

GTTTTTAACG
switch fluorescence ratio: 1.02 ± 0.05

GTTACAGTGG
switch fluorescence ratio: 1 ± 0.061

GAGTGTGGGC
switch fluorescence ratio: 1.01 ± 0.099

TCCGGGTTGT
switch fluorescence ratio: 1.04 ± 0.056

GGCGCCGCGG
switch fluorescence ratio: 0.9937 ± 0.0092

GCACTAGGGA
switch fluorescence ratio: 0.9908 ± 0.0062

AGGGTAGGGG
switch fluorescence ratio: 0.994 ± 0.03

CATGGTCATT
switch fluorescence ratio: 1 ± 0.019

AAAAAAATGG
switch fluorescence ratio: 1.01 ± 0.041
